# Results published in article PMC11144241, “Nutrient levels control root growth responses to high ambient temperature in plants”.
# T1: HY5 (Arabidopsis thaliana, UniProt O24646 1-168)
# T1 sequence: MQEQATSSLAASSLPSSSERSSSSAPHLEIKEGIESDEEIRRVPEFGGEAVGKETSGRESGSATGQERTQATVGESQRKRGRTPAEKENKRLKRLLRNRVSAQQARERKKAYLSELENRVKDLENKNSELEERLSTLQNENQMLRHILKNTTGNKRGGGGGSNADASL
# B1: pNRT1.1-EMSA (G-box probe, NRT1.1 promoter) (dsDNA)
# DNA 1: GAGTCACACATGTGTCACTT
# DNA 2: AAGTGACACATGTGTGACTC
# Biological target: T1, HY5
# Assay: EMSA; EMSA according to manufacturer's protocol (Thermofisher); buffer, salt, pH and temperature not stated
# Settings: protein: recombinant; tags: GST (pDEST15, N-terminal); label: biotin 3' end; blunt
binder,measurement,value
B1,binding result,binds
